# B1: CL25_hu_8-5 (antibody, V domains shown)
# VH: QVQLVQSGAEVKKPGASVKVSCKASGYTFTSYGLSWVRQATGQGLEWMGEIYPGSGNTYYNEKFKGRVTMTRNTSISTAYMELSSLRSEDTAVYYCARYDYLGSSYGFDYWGAGTTVTVSS
# VL: DIVMTQSPDSLAVSLGERATINCKASQDVSTAVAWYQQKPGQPPKLLIYSASYRYSGVPDRFSGSGSGTDFTLTISSLQAEDVAVYYCQQHYNTPYTFGGGTKLEIK
# notes: Humanized CL25 variant
# B2: HzCL25 (antibody, human IgG1, kappa, N297A, V domains shown)
# VH: EVQLVQSGAEVKKPGESLKISCKGSGYTFTSYGLSWVRQMPGKGLEWMGEIYPGSGNTYYNEKFKGQVTISADKSISTAYLQWSSLKASDTAMYYCARYDYLGSSYGFDYWGAGTTVTVSS
# VL: DIVMTQSPDSLAVSLGERATINCKASQDVSTAVAWYQQKPGQPPKLLIYSASYRYSGVPDRFSGSGSGTDFTLTISSLQAEDVAVYYCQQHYNTPYTFGGGTKLEIKR
# notes: Humanized IgG1/kappa with N297A (EU); also called HzCL25 IgG; humanized CL25
# Experiments:
# [1] = molecular target: T1, cell surface CD73 on MDA-MB-231 and A375 cells (human, UniProt P21589 27-549); assay: flow cytometry on MDA-MB-231 cells, antibody 30 min on ice, PE-conjugated secondary antibody, GMFI
# T1 construct: A375: moderate level; also called cellular CD73
# T1 sequence: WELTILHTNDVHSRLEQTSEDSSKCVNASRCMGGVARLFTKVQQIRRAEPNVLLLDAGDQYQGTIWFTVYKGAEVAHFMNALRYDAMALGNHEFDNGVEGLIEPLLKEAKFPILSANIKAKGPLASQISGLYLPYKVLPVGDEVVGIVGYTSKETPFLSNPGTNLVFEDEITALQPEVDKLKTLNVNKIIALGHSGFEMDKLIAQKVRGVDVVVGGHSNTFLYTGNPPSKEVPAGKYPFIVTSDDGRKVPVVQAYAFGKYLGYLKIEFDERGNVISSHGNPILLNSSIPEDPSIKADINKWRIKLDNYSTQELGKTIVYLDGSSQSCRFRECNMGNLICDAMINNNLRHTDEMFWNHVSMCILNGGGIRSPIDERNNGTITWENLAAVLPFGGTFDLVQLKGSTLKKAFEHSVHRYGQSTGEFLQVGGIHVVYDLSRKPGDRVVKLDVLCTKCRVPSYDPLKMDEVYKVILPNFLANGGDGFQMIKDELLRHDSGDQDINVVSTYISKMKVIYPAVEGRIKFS
# Experimental: The cells were stained with the indicated concentration of antibodies for 30 minutes on ice (FIG. 2A and FIG. 2B). Next, the cells were washed and stained using goat anti-mouse secondary conjugated to phycoerythrin (PE) for 30 minutes on ice. The cells were then washed and analyzed by flow cytometry. Geometric mean fluorescence intensity (GMFI) of CD73 staining was graphed (FIG. 2A and FIG. 2B).
# recombinant human CD73 = molecular target: T2, recombinant human CD73 (human, UniProt P21589 27-549); assay: enzyme inhibition assay with recombinant full length CD73, adenosine by LC-MS, mixed-inhibition model
# T2 construct: Soluble recombinant CD73 (BPS Bioscience stock in the SPR); also called rhuCD73; human CD73, open conformation
# T2 sequence: T1 sequence
# Experimental: Briefly, the inhibition potencies of the agents were measured in an enzyme assay using adenosine ¹³C₁₀, ¹⁵N₅ 5′-monophosphate sodium salt solution (650676, Sigma) as substrate and detecting product, adenosine by LC-MS. Antibody agents were serially diluted in buffer and a volume of 5 μL was transferred to a 96-well plate. 20 μL of 0.5 μM recombinant CD73 in assay buffer (25 mM Tris, 5 mM MgCl₂, 0.005% Brij35 pH 7.5) was added to the plate and pre-incubated for 2 hours at 25° C. The assay was initiated by the addition of a 25 μL solution containing AMP at various concentrations. The reactions were run for 0.5 hr at 25° C. and then quenched with 50 μL of methanol.
Binder,EC50 (read off the curve) [1],Ki (recombinant human CD73)
B1,~0.06 µg/mL,–
B2,–,0.3 nM

# From patent US20240352143A1 (Incyte, published 2024)
